Experimental data from article PMC3641580 (Cell, 2013).

Target: hMutSα (hMSH2-hMSH6), wild type (human, UniProt P43246 1-934; P52701 1-1360)
Assay: pull-down

- binding result: binds
Binder: ARKSAPATGGVKKPHRYRP (dimethyl-lysine at K36; biotin (position not given)) [biotin-labeled histone H3 peptide with di-methylated K36]
